Experiments:
murine CCR5 (murine) = murine CCR5 (murine) (UniProt P51682); assay: cell-based or functional assay
[1] = biological target: human chemokine receptor 5 (CCR5) (human) (UniProt P51681); assay: cell-based or functional assay

Chain of UniProt P51682 (P51682 whole entry): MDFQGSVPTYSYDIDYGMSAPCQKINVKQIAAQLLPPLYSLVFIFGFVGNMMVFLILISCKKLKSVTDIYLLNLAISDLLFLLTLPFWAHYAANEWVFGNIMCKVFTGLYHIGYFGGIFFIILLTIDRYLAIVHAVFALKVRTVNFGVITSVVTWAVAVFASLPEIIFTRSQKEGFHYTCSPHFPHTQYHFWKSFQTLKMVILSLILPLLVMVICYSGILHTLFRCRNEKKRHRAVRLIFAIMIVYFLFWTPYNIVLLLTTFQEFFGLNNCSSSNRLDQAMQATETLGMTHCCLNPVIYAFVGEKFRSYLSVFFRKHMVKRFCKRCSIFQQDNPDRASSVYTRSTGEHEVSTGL

Substance: chemokine-toxin fusion protein RANTES-PE38
- cytotoxicity on CHO cells expressing murine CCR5 (40 h, light microscopy) (murine CCR5 (murine)): 10 nM
- cytotoxicity on CCR5 positive CHO cells (48 h): concentration of complete destruction [1]: 2 nM
- cytotoxicity on CHO cells expressing human CCR5 (40 h): concentration of complete killing [1]: 10 nM
